According to patent US20200264182A1 (J OIL MILLS, published 2020):
Where no end group is shown, it is not given here.

T1: Aleuria aurantia lectin (AAL), biotin-labeled (Aleuria aurantia, UniProt P18891 2-313, biotin label (sites not given))
T1 construct: Bought reagent, used as the comparative lectin
T1 sequence (looked up): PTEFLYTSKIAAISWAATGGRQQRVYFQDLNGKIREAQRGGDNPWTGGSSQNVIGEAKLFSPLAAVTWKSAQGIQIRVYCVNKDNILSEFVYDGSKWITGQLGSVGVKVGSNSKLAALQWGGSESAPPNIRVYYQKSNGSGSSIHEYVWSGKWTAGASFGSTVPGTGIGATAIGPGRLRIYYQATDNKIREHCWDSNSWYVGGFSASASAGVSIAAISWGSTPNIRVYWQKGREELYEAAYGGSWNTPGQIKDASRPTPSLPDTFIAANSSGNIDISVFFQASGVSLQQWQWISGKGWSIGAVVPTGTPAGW

B1: Pholiota squarrosa lectin (PhoSL), biotin-labeled (other)
chain: APVPVTKLVCDGDTYKCTAYLDFGDGRWVAQWDTNVFHTG
modifications: cysteine pairing not given here; also: biotin label, site not given here
notes: Lectin; also called biotin-labeled PhoSL; fucose α1→6 specific lectin
B2: fucosylated PSA (prostate specific antigen) (enzyme)
chain: not shown
modifications: N-linked sugar chain with α1→6 fucose (site not stated)
notes: also called serum fucosylated PSA
B3: Pholiota squarrosa lectin peptide (PhoSL peptide), biotin-labeled (peptide)
peptide: KPVPVTKLVCDGDTYKCTAKLDFGDGRWVAQWDTNVFHK
modifications: cysteine pairing not given here; also: biotin label, sites not given here

Assays:
[1] = target: B2; test: sandwich ELISA: PSA captured on anti-PSA antibody, biotin-lectin detected with HRP-streptavidin
[2] = target: T1, Aleuria aurantia lectin (AAL), …; test: sandwich ELISA on serum, biotin-labeled AAL, pH 7.4
[3] = target: B2; test: sandwich ELISA on serum, biotin-labeled PhoSL peptide, pH 9.6

B1: binds [1].

B2: binds [2].

B3: binds [3].
